Measured values: IntAct's records for PubMed 29892012

B1: Enhancer of mRNA-decapping protein 3 (Homo sapiens), Q96F86 (parent)
chain: MATDWLGSIVSINCGDSLGVYQGRVSAVDQVSQTISLTRPFHNGVKCLVPEVTFRAGDITELKILEIPGPGDNQHFGDLHQTELGPSGAGCQVGINQNGTGKFVKKPASSSSAPQNIPKRTDVKSQDVAVSPQQQQCSKSYVDRHMESLSQSKSFRRRHNSWSSSSRHPNQATPKKSGLKNGQMKNKDDECFGDDIEEIPDTDFDFEGNLALFDKAAVFEEIDTYERRSGTRSRGIPNERPTRYRHDENILESEPIVYRRIIVPHNVSKEFCTDSGLVVPSISYELHKKLLSVAEKHGLTLERRLEMTGVCASQMALTLLGGPNRLNPKNVHQRPTVALLCGPHVKGAQGISCGRHLANHDVQVILFLPNFVKMLESITNELSLFSKTQGQQVSSLKDLPTSPVDLVINCLDCPENVFLRDQPWYKAAVAWANQNRAPVLSIDPPVHEVEQGIDAKWSLALGLPLPLGEHAGRIYLCDIGIPQQVFQEVGINYHSPFGCKFVIPLHSA
partner: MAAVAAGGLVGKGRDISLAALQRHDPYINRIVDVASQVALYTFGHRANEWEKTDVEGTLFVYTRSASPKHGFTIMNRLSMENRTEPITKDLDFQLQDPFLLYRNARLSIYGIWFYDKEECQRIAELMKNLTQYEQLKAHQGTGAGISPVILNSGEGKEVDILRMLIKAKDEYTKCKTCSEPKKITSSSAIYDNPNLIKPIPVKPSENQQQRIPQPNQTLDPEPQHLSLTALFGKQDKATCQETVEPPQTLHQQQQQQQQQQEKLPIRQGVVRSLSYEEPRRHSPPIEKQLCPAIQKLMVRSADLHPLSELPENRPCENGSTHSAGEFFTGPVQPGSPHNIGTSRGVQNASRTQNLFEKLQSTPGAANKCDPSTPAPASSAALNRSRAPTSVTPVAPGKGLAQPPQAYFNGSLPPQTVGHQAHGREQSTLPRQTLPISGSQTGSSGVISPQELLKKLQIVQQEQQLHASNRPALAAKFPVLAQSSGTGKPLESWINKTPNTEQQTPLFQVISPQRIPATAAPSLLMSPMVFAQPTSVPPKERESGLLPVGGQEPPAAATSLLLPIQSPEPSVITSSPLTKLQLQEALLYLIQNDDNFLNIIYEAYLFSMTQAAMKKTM
B2: Chaperone Ric-8A (Homo sapiens), Q9NPQ8 (parent)
chain: MEPRAVAEAVETGEEDVIMEALRSYNQEHSQSFTFDDAQQEDRKRLAELLVSVLEQGLPPSHRVIWLQSVRILSRDRNCLDPFTSRQSLQALACYADISVSEGSVPESADMDVVLESLKCLCNLVLSSPVAQMLAAEARLVVKLTERVGLYRERSFPHDVQFFDLRLLFLLTALRTDVRQQLFQELKGVRLLTDTLELTLGVTPEGNPPPTLLPSQETERAMEILKVLFNITLDSIKGEVDEEDAALYRHLGTLLRHCVMIATAGDRTEEFHGHAVNLLGNLPLKCLDVLLTLEPHGDSTEFMGVNMDVIRALLIFLEKRLHKTHRLKESVAPVLSVLTECARMHRPARKFLKAQVLPPLRDVRTRPEVGEMLRNKLVRLMTHLDTDVKRVAAEFLFVLCSESVPRFIKYTGYGNAAGLLAARGLMAGGRPEGQYSEDEDTDTDEYKEAKASINPVTGRVEEKPPNPMEGMTEEQKEHEAMKLVTMFDKLSRNRVIQPMGMSPRGHLTSLQDAMCETMEQQLSSDPDSDPD
B3: TBC1 domain family member 22B (Homo sapiens), Q9NU19 (parent)
chain: MAAENSKQFWKRSAKLPGSIQPVYGAQHPPLDPRLTKNFIKERSKVNTVPLKNKKASSFHEFARNTSDAWDIGDDEEEDFSSPSFQTLNSKVALATAAQVLENHSKLRVKPERSQSTTSDVPANYKVIKSSSDAQLSRNSSDTCLRNPLHKQQSLPLRPIIPLVARISDQNASGAPPMTVREKTRLEKFRQLLSSQNTDLDELRKCSWPGVPREVRPITWRLLSGYLPANTERRKLTLQRKREEYFGFIEQYYDSRNEEHHQDTYRQIHIDIPRTNPLIPLFQQPLVQEIFERILFIWAIRHPASGYVQGINDLVTPFFVVFLSEYVEEDVENFDVTNLSQDMLRSIEADSFWCMSKLLDGIQDNYTFAQPGIQKKVKALEELVSRIDEQVHNHFRRYEVEYLQFAFRWMNNLLMRELPLRCTIRLWDTYQSEPEGFSHFHLYVCAAFLIKWRKEILDEEDFQGLLMLLQNLPTIHWGNEEIGLLLAEAYRLKYMFADAPNHYRR
partner: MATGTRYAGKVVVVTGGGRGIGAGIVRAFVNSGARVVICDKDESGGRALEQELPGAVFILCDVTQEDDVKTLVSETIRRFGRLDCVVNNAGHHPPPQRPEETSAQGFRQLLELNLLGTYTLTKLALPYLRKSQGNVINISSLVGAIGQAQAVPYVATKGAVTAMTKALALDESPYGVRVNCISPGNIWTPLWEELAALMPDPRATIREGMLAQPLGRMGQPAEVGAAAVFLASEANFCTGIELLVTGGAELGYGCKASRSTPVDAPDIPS

Variants of: B1
Conditions: with dcp1b_human DCP1B

Variant | effect of a mutation on the interaction
F213L | with no effect

Variants of: B2
Conditions: with praf1_human RABAC1, Q9UI14
praf1_human RABAC1, Q9UI14, sequence (Q9UI14 whole entry): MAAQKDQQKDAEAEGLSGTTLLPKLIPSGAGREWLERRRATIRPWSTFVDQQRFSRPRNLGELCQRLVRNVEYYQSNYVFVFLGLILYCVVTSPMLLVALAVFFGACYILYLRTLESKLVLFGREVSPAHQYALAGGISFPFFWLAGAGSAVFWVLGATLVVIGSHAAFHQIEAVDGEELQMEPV

Variant | effect of a mutation on the interaction
K319E | with no effect

Variants of: B2
Conditions: with ubql1_human UBQLN1, Q9UMX0
ubql1_human UBQLN1, Q9UMX0, sequence (Q9UMX0 whole entry): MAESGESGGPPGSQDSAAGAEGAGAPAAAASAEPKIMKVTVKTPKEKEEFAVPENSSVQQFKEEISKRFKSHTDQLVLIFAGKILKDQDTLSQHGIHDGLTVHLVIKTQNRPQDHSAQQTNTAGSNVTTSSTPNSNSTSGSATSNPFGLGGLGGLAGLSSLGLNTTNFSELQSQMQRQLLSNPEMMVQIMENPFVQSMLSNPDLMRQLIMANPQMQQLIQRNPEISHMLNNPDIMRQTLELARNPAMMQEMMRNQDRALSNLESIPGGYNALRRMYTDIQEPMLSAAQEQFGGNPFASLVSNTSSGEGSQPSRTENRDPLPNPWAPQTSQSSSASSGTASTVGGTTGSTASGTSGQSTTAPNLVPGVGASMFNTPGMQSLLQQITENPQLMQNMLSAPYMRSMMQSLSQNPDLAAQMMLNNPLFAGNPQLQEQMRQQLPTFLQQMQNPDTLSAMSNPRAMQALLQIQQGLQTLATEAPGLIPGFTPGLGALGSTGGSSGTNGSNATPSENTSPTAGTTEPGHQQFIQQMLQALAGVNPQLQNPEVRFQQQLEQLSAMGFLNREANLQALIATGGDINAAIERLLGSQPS

Variant | effect of a mutation on the interaction
K319E | with no effect

Variants of: B2
Conditions: with sdcb1_human SDCBP

Variant | effect of a mutation on the interaction
K319E | with no effect

Variants of: B2
Conditions: with nutm1_human NUTM1, Q86Y26
nutm1_human NUTM1, Q86Y26, sequence (Q86Y26 whole entry): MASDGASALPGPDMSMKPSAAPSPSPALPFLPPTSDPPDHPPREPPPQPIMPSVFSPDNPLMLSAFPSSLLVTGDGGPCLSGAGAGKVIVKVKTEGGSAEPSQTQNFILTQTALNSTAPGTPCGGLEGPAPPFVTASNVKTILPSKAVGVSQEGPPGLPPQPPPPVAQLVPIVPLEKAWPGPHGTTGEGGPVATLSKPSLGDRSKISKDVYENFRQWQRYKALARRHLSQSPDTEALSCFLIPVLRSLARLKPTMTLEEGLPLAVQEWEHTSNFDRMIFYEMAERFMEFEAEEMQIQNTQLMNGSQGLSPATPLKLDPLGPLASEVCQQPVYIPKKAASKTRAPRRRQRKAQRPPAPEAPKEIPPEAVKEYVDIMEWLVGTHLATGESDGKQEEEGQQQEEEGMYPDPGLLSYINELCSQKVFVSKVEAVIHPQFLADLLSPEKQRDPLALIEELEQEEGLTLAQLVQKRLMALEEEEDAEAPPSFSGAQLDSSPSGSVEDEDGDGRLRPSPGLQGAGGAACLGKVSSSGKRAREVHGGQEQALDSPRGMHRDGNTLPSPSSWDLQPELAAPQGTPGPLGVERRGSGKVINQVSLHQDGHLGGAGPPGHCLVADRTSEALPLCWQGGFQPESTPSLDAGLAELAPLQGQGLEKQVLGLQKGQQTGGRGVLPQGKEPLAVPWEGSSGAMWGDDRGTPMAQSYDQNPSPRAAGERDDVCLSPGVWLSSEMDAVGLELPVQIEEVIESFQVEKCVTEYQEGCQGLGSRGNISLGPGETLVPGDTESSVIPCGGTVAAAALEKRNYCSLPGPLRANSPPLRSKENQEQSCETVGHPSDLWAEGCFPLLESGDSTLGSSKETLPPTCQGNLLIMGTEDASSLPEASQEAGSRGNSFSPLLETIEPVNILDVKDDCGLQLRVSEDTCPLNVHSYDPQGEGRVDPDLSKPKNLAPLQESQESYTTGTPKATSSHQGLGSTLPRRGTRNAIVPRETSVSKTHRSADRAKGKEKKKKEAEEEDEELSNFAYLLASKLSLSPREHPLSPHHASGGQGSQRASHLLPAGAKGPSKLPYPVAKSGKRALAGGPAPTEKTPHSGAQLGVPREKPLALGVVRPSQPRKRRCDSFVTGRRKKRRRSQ

Variant | effect of a mutation on the interaction
K319E | with no effect

Variants of: B3
Conditions: with dhb14_human HSD17B14, Q9BPX1

Variant | effect of a mutation on the interaction
A349T | disrupting interaction strength
